Measurements taken from patent US20210388087A1 (Chugai, published 2021).
Substitutions are numbered along the chain they refer to. Each block holds one binder with its values, some of them ahead of it.

Legend:
[1] = molecular target: T1, biotin-labeled human CD137 fused to human IgG1 Fc fragment (human, UniProt Q07011 24-186, biotin-labeled); experiment: bead ELISA, 1250 ng IgG, S/N over biotin-human Fc
T1 construct: also called human CD137-Fc; biotin-human CD137-Fc; not shown: human IgG1 Fc fragment

human CD137-Fc [2] = molecular target: T2, human CD137-Fc (human, biotin-labeled); experiment: bead ELISA on biotin-human CD137-Fc with 125 pmol/well free CD3e peptide as competitor;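 note: Streptavidin-coated magnetic beads in blocking buffer as the capture surface, well signal read as fluorescence 2 min after adding APS-5 substrate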
T2 construct: if 90 already holds the Fc, drop the second piece; also called biotin-labeled human CD137 fused to human IgG1 Fc fragment; biotin-human CD137-Fc; not shown: human IgG1 Fc fragment

human CD137-Fc [3] = molecular target: T2, human CD137-Fc; experiment: bead ELISA on biotin-human CD137-Fc, 0 pmol free CD3e peptide
human CD137-Fc [4] = molecular target: T2, human CD137-Fc; experiment: bead ELISA on biotin-human CD137-Fc, 125 vs 0 pmol free CD3e peptide;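 note: target captured on streptavidin-coated magnetic beads, signal read as fluorescence 2 min after adding APS-5 substrate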

binding result [1]: binds
B1: dBBDu217 (antibody, human IgG1, V domains shown)
VH: QVQLVESGGGLVQPGRSLRLSCAASGFTFSNAWMHWVRQAPGKGLEWVAQIKDRQQGYATYYAPSVKGRFTISRDDSKNSIYLQMNSLKTEDTAVYYCRFVHYHLAGYGYYGVDAWGQGTTVTVSS
VL: DIVMTQSPLSLPVTPGEPASISCRSSQSLVHSNRNTYLHWYQQKPGQAPRLLIYKVSNRFSGVPDRFSGSGSGTDFTLKISRVEAEDVGVYYCGQGTQVPYTFGQGTKLEIK
notes: human IgG1; GLS3000 light chain

ELISA signal (human CD137-Fc [2]): 2420
ELISA signal (human CD137-Fc [3]): 19100
Signal decrease (human CD137-Fc [4]): 87.3%
B2: dBBDu217 (antibody, V domains shown)
VH: B1 VH
VL: B1 VL
notes: Human IgG1; light chain GLS3000 (kappa)

ELISA signal (human CD137-Fc [2]): 1880
ELISA signal (human CD137-Fc [3]): 4800
Signal decrease (human CD137-Fc [4]): 60.8%
B3: dBBDu174 (antibody, V domains shown)
VH: QVQLVESGGGLVQPGRSLRLSCAASGFTFSSAWMHWVRQAPGKGLEWVAQIKDRASAYNAYYAESVKGRFTISRDDSKNSIYLQMNSLKTEDTAVYYCRYVHYPSYVSFLPYYGVDAWGQGTTVTVSS
VL: B1 VL
notes: as for B2

ELISA signal (human CD137-Fc [2]): 1920
ELISA signal (human CD137-Fc [3]): 9440
Signal decrease (human CD137-Fc [4]): 79.6%
B4: dBBDu139 (antibody, V domains shown)
VH: QVQLVESGGGLVQPGRSLRLSCAASGFTFSNAWMHWVRQAPGKGLEWVAQIKDRGNAYNAYYAESVKGRFTISRDDSKNSIYLQMNSLKTEDTAVYYCRFVHYRHPLLHIQYGVDAWGQGTTVTVSS
VL: B1 VL
notes: as for B2

binding result [1]: binds
B5: dBBDu197 (antibody, human IgG1, V domains shown)
VH: QVQLVESGGGLVQPGRSLRLSCAASGFTFSNAWMHWVRQAPGKGLEWVAQIKDRSNAYAAYYAPSVKGRFTISRDDSKNSIYLQMNSLKTEDTAVYYCHYVHYASASTVLPAFGVDAWGQGTTVTVSS
VL: B1 VL
notes: as for B1

binding result [1]: binds
B6: dBBDu139 (antibody, human IgG1, V domains shown)
VH: B4 VH
VL: B1 VL
notes: as for B1

ELISA signal (human CD137-Fc [2]): 1930
ELISA signal (human CD137-Fc [3]): 12100
Signal decrease (human CD137-Fc [4]): 84%
B7: dBBDu202 (antibody, V domains shown)
VH: B5 VH with R54K, S55G, A104S, S105A
VL: B1 VL
notes: as for B2

binding result [1]: binds
B8: dBBDu199 (antibody, human IgG1, V domains shown)
VH: B5 VH with R54K, S55Q, N56S, A57G, A59N, A60T
VL: B1 VL
notes: as for B1

binding result [1]: binds
B9: dBBDu181 (antibody, human IgG1, V domains shown)
VH: B5 VH with V48I, S55G, A57N, A59N, A60N, S105T, V109L, P111G, F113Y
VL: B1 VL
notes: as for B1

binding result [1]: binds
B10: dBBDu196 (antibody, human IgG1, V domains shown)
VH: B5 VH with S55G, A59N, P64E
VL: B1 VL
notes: as for B1

binding result [1]: binds
B11: dBBDu173 (antibody, human IgG1, V domains shown)
VH: B5 VH with R54K, S55G, A57L, S107G, T108G, V109G, P111S, F113Y
VL: B1 VL
notes: as for B1

binding result [1]: binds
B12: dBBDu204 (antibody, human IgG1, V domains shown)
VH: B5 VH with A57N, A60T, P64E
VL: B1 VL
notes: as for B1

ELISA signal (human CD137-Fc [2]): 2220
ELISA signal (human CD137-Fc [3]): 33100
Signal decrease (human CD137-Fc [4]): 93.3%
B13: dBBDu196 (antibody, V domains shown)
VH: B5 VH with S55G, A59N, P64E
VL: B1 VL
notes: as for B2

ELISA signal (human CD137-Fc [2]): 3240
ELISA signal (human CD137-Fc [3]): 7190
Signal decrease (human CD137-Fc [4]): 55%
B14: dBBDu222 (antibody, V domains shown)
VH: QVQLVESGGGLVQPGRSLRLSCAASGFTISSAWMHWVRQAPGKGLEWVAQIKDRANGYAAYYAPSVKGRFTISRDDSKNSIYLQMNSLKTEDTAVYYCRYVHYATAYDGFYGFGVDAWGQGTTVTVSS
VL: B1 VL
notes: as for B2

binding result [1]: binds
B15: dBBDu205 (antibody, human IgG1, V domains shown)
VH: B5 VH with N56Q, A57L
VL: B1 VL
notes: as for B1

ELISA signal (human CD137-Fc [2]): 2370
ELISA signal (human CD137-Fc [3]): 40900
Signal decrease (human CD137-Fc [4]): 94.2%
B16: dBBDu199 (antibody, V domains shown)
VH: B5 VH with R54K, S55Q, N56S, A57G, A59N, A60T
VL: B1 VL
notes: as for B2

ELISA signal (human CD137-Fc [2]): 2190
ELISA signal (human CD137-Fc [3]): 45200
Signal decrease (human CD137-Fc [4]): 95.2%
B17: dBBDu205 (antibody, V domains shown)
VH: B5 VH with N56Q, A57L
VL: B1 VL
notes: as for B2

binding result [1]: binds
B18: dBBDu202 (antibody, human IgG1, V domains shown)
VH: B5 VH with R54K, S55G, A104S, S105A
VL: B1 VL
notes: as for B1

binding result [1]: binds
B19: dBBDu186 (antibody, human IgG1, V domains shown)
VH: B5 VH with A57Q, A60T, S105Q
VL: B1 VL
notes: as for B1

binding result [1]: binds
B20: dBBDu167 (antibody, human IgG1, V domains shown)
VH: B5 VH with R54K, S55G, A57L, S107G, T108G, V109G, A112G
VL: B1 VL
notes: as for B1

ELISA signal (human CD137-Fc [2]): 1880
ELISA signal (human CD137-Fc [3]): 43700
Signal decrease (human CD137-Fc [4]): 95.7%
B21: dBBDu204 (antibody, V domains shown)
VH: B5 VH with A57N, A60T, P64E
VL: B1 VL
notes: as for B2

binding result [1]: binds
B22: dBBDu189 (antibody, human IgG1, V domains shown)
VH: B5 VH with V48I, A57Q, A60T, S105Q, T108S, V109L, A112S
VL: B1 VL
notes: as for B1

binding result [1]: binds
B23: dBBDu193 (antibody, human IgG1, V domains shown)
VH: B5 VH with A57Q, A60T, A104S, S105A, V109L, A112S
VL: B1 VL
notes: as for B1

ELISA signal (human CD137-Fc [2]): 2620
ELISA signal (human CD137-Fc [3]): 86200
Signal decrease (human CD137-Fc [4]): 97%
B24: Du115/DUL008 (antibody, V domains shown)
VH: QVQLVESGGGLVQPGRSLRLSCAASGFTFSNAWMHWVRQAPGKGLEWVAQIKDKANSYNTYYAPSVKGRFTISRDDSKNSIYLQMNSLKTEDTAVYYCRYVHYGSSYGFLFAGYGVDAWGQGTTVTVSS
VL: DIVMTQSPLSLPVTPGEPASISCQSSEELLHANRKTYLHWYQQKPGQAPRLLIYKVQNRFSGVPDRFSGSGSGTDFTLKISRVEAEDVGVYYCAQGTATPFTFGQGTKLEIK
